From PMC9433777

Columns and labels:
[1] = molecular target: HIV-1 envelope CAP45.G3 (subtype C) (HIV-1)
[2] = molecular target: HIV-1 envelope Du172.17 (subtype C) (HIV-1)
[3] = molecular target: HIV-1 envelope ZM233.6 (subtype C) (HIV-1)
[4] = molecular target: HIV-1 envelope Q842.d12 (subtype A) (HIV-1)
[5] = molecular target: HIV-1 envelope TRO.11 (subtype B) (HIV-1)
[6] = molecular target: HIV-1 envelope Q461.e2 (subtype A) (HIV-1)
[7] = molecular target: HIV-1 envelope Q168.a2 (subtype A) (HIV-1)
[8] = molecular target: HIV-1 envelope Du156.12 (subtype C) (HIV-1)
[9] = molecular target: HIV-1 envelope Q23.17 (subtype A) (HIV-1)
[10] = molecular target: HIV-1 envelope QH0692.42 (subtype B) (HIV-1)
[11] = molecular target: HIV-1 envelope CAP214.15 (subtype C) (HIV-1)
[12] = molecular target: HIV-1 envelope CAP210.E8 (subtype C) (HIV-1)
[13] = molecular target: HIV-1 envelope 6535 (subtype B) (HIV-1)
[14] = molecular target: HIV-1 envelope Du422.01 (subtype C) (HIV-1)
[15] = molecular target: HIV-1 envelope ZM197.7 (subtype C) (HIV-1)

CAP256-VRC26.25 produced in HEK293 (antibody)
IC50 of neutralisation of HIV-1 pseudovirus, TZM-bl assay [1]: 0.0013 µg/mL | IC50 of neutralisation of HIV-1 pseudovirus, TZM-bl assay [2]: > 50 µg/mL | IC50 of neutralisation of HIV-1 pseudovirus, TZM-bl assay [3]: 0.0044 µg/mL | IC50 of neutralisation of HIV-1 pseudovirus, TZM-bl assay [4]: > 50 µg/mL | IC50 of neutralisation of HIV-1 pseudovirus, TZM-bl assay [5]: > 50 µg/mL | IC50 of neutralisation of HIV-1 pseudovirus, TZM-bl assay [6]: 0.67 µg/mL | IC50 of neutralisation of HIV-1 pseudovirus, TZM-bl assay [7]: 1.73 µg/mL | IC50 of neutralisation of HIV-1 pseudovirus, TZM-bl assay [8]: 0.15 µg/mL | IC50 of neutralisation of HIV-1 pseudovirus, TZM-bl assay [9]: 0.0014 µg/mL | IC50 of neutralisation of HIV-1 pseudovirus, TZM-bl assay [10]: > 50 µg/mL | IC50 of neutralisation of HIV-1 pseudovirus, TZM-bl assay [11]: 3.12 µg/mL | IC50 of neutralisation of HIV-1 pseudovirus, TZM-bl assay [12]: 0.0012 µg/mL | IC50 of neutralisation of HIV-1 pseudovirus, TZM-bl assay [13]: > 50 µg/mL | IC50 of neutralisation of HIV-1 pseudovirus, TZM-bl assay [14]: 0.11 µg/mL | IC50 of neutralisation of HIV-1 pseudovirus, TZM-bl assay [15]: 0.11 µg/mL

CAP256-VRC26.25 produced in N. benthamiana (ΔXTFT) with Cas9/sgRNAs coexpression (antibody)
IC50 of neutralisation of HIV-1 pseudovirus, TZM-bl assay [1]: 0.0013 µg/mL | IC50 of neutralisation of HIV-1 pseudovirus, TZM-bl assay [2]: > 50 µg/mL | IC50 of neutralisation of HIV-1 pseudovirus, TZM-bl assay [3]: 0.005 µg/mL | IC50 of neutralisation of HIV-1 pseudovirus, TZM-bl assay [4]: > 50 µg/mL | IC50 of neutralisation of HIV-1 pseudovirus, TZM-bl assay [5]: > 50 µg/mL | IC50 of neutralisation of HIV-1 pseudovirus, TZM-bl assay [6]: 1.61 µg/mL | IC50 of neutralisation of HIV-1 pseudovirus, TZM-bl assay [7]: 3.05 µg/mL | IC50 of neutralisation of HIV-1 pseudovirus, TZM-bl assay [8]: 0.041 µg/mL | IC50 of neutralisation of HIV-1 pseudovirus, TZM-bl assay [9]: 0.0016 µg/mL | IC50 of neutralisation of HIV-1 pseudovirus, TZM-bl assay [10]: > 50 µg/mL | IC50 of neutralisation of HIV-1 pseudovirus, TZM-bl assay [11]: 2.77 µg/mL | IC50 of neutralisation of HIV-1 pseudovirus, TZM-bl assay [12]: 0.0014 µg/mL | IC50 of neutralisation of HIV-1 pseudovirus, TZM-bl assay [13]: > 50 µg/mL | IC50 of neutralisation of HIV-1 pseudovirus, TZM-bl assay [14]: 0.2 µg/mL | IC50 of neutralisation of HIV-1 pseudovirus, TZM-bl assay [15]: 0.098 µg/mL

CAP256-VRC26.25 produced in N. benthamiana (ΔXTFT) without Cas9/sgRNAs coexpression (antibody)
IC50 of neutralisation of HIV-1 pseudovirus, TZM-bl assay [1]: 0.0014 µg/mL | IC50 of neutralisation of HIV-1 pseudovirus, TZM-bl assay [2]: > 50 µg/mL | IC50 of neutralisation of HIV-1 pseudovirus, TZM-bl assay [3]: 0.0042 µg/mL | IC50 of neutralisation of HIV-1 pseudovirus, TZM-bl assay [4]: > 50 µg/mL | IC50 of neutralisation of HIV-1 pseudovirus, TZM-bl assay [5]: > 50 µg/mL | IC50 of neutralisation of HIV-1 pseudovirus, TZM-bl assay [6]: 1.73 µg/mL | IC50 of neutralisation of HIV-1 pseudovirus, TZM-bl assay [7]: 2.94 µg/mL | IC50 of neutralisation of HIV-1 pseudovirus, TZM-bl assay [8]: 0.034 µg/mL | IC50 of neutralisation of HIV-1 pseudovirus, TZM-bl assay [9]: 0.0016 µg/mL | IC50 of neutralisation of HIV-1 pseudovirus, TZM-bl assay [10]: > 50 µg/mL | IC50 of neutralisation of HIV-1 pseudovirus, TZM-bl assay [11]: 4.31 µg/mL | IC50 of neutralisation of HIV-1 pseudovirus, TZM-bl assay [12]: 0.0015 µg/mL | IC50 of neutralisation of HIV-1 pseudovirus, TZM-bl assay [13]: > 50 µg/mL | IC50 of neutralisation of HIV-1 pseudovirus, TZM-bl assay [14]: 0.1 µg/mL | IC50 of neutralisation of HIV-1 pseudovirus, TZM-bl assay [15]: 0.056 µg/mL
